Measured values published in a protein production outcome set (Wang et al. 2014).

Experiment: label from the status in PepcDB records
For “MTIVVSRKFLAILARAIEGEVATDTIFTLLGLKVVVTLASLLPASVFLSVLMVLGRMYRDNEMTVFACAGVGPLRIYRSILLFAGPVCVLGAFLSLQAMPWSERLSQELISKDEKGADVRGIKAGRFNEFSQGDVVLYAEQLNTDKTMSRVFAQSRRGDETGIVIAESGHMEINDAGDHFVVLNNGRRYQGVPGRADFVLNEFQAYGVRINPPEGSQAALKREAADSLHLWMSGRPRELAELQRRLAVPLGTFTLTLLAVPIARTSPRGGVWGNLISAFLIYIIYENLQKISQGLLATGKLSVWTSYAGIYAVMLLATSVLLARNSGWRWVRDTALGRR”, the protein production was “failed”. In the case of “MTKAETSIGVFYVSEYGYSDRLAQAIINGITKTGVGVDVVDLGAAVDLQELRELVGRCTGLVIGMSPAASAASIQGALSTILGSVNEKQAVGIFETGGGDDEPIDPLLSKFRNLGLTTAFPAIRIKQTPTENTYKLCEEAGTDLGQWVTRDRSIKAMKSLGLEHHHHHH”, the protein production is reported as “not failed”. For “MTKAMTAHDYLPLIEKIRKRISSWTGRFLSYCGRLQLIKSVLMSITNFWSSAFRLPGNCMKEIERLCSAFLWSGPDLKTHNAKIAWSKVCLPMCEGGLGLRPLKEINTVCGLKLIWRLLASQTSLWGQWVQTYLIRRNNFWAIKASSYQGSWMWRKLLTLRDVARSFHKKEIHNGRNTSFWYDHWSSMGTLVDVLGARGCIDLGITTTTNMENVFTTRRSRKHRGDLLVRIEAEIEAAKTRHQPDIEDIDLWKPSTGYKKTFSTRETWKLIRMAEPVCEWAKGVWFPKPHQNLLSLLGWVCTIVFQQGTECKSGTAKLTLLAFSAKTLWKQEITYSSTVTTPIKFGKL”, the protein production was “failed”. With “MTKHFLPRRTRKRRPEPLVKVRIDPPKLPKIRLLPRRAPRPRRPEPLVKVRIDPPRIRLPRIRRPRLTPFRERNPVVIGAVGLTFLALLTVAAFNADSLPLIGGGETYSAAFSEAGGLKPGDEVRIAGVKVGKVKDVDLDGDHVKVTFKIKGDPGFGTETGASIRVKTILGAKYLALRPKGPGQLKPGSEIPLKRTVPAYDVVQAFSDLTTTTEKVDTDQLAKALDTISTTFQDSPAEVRASIKGLSKISRTVASRDKALGELLDHANGVTGVLAEHSEDFTALVKDGGKLFKEISKRRKAIHKLLKSSAALGIELSGLVEDNDKEIGPALKGLNRVVQMLERNQSSLDRSVKLLAPYVRVFTNALGNGRWFDSYVQNLVAAPVVPRTGGAQ” the protein production was “failed”. For “MTKHIPLQATSACAAVPPSAVLDSAHLGEIRGALGTIAADDRAPRRTLKARLQTLLAIAGPGLIVMVGDNDAGAFGTYTQAGQNYGTTLLWTLLLLIPVLYVNQEMVVRLGAVTGVGHARLIFARFGKFWGAFSVADLFLLNALTLVTEFIGISLALQYLGLSQFWGVIAAAVIITFAVSTGDFRRFERFALLLVAGSLLLIPVAVMVHPPLPQLAHDFFVPKMPAGAPLGEVMLLIIAIVGTTIAPWQLFFQQSYLIDKRITPRFIRYERWDLCVGIALVIIGAVAMIGFSAAAFAGRPEFGAYTDALGTAHGLEQAAGRLPAILFALALLDASIIGAAAVSLATAYAIGDVFAVAHSLHRKPSEAKGFYAVYAGLIAFAAALVVTPGMPLGLLTNAVQTLAGVLLPSATVFLLLLCNDKAVLGPWVNRRAGNLFTGAIVAVLVLLSVILTVSVLFPGVGETTILGILGGGVVGALLLSGAVALIARRGQGVRAEPPARSVVAPEEWRMPLLATLPPARLSAVSRTWLLVLRGYLVLAAGLVLYRIVELIAR”, the protein production was “failed”. With “MTKIIPVASGKGGVGKTSFVANVGYKLSSLGKTVILVDLDLGGSNLHTCLGVKNKGVGIGSFINKKSKSFSDLVCKTSYDKLYLIPGDALYTGTANLPFSIKKKIIESIQKDLIADFIFLDLGSGTSYNTIDFYLASYSGVIVTIPETPSILNAYSFLKNALYRLLYLGFPQKSPERDYIGNFFKDKIEGTNLGFKDLVVGIELISLSSSLKVKRMMNNFYPRVVLNRIETSEEIAMCENLINVVKNNINIPIEFIGFVPFAKSFREAINNRVPFIDFEKNSKLNKYFEFIAGNLIKSPIEGSPYIYDDIYDMIKDQSRFIRKLEHHHHHH” the protein production was “not failed”. In the case of “MTKIMIIGANGGIAKKLTQRLLAETDDELVLFLRRAERLAQYREQPRVTLIDGNVLDTDELATAMAPVDIVYSNVGGTDLAAQTKSILAAMARTQRQRLIFISALGAHHEVPGKFGAWNEQAIADFLPGFREAARLLSASELVYTEIRPAWLTDVAEIDYELTTGAEPFKGTEVSRASVADLVFKLMAHPENYQRVSLGVDEPGTAGDRPSWLLEHHHHHH”, the protein production is reported as “failed”. With “MTKQDIRVALTIVALVLGLGWAIGYGIGLMTRPASVVPENPPHDALKSPARKAPRSGAVSGDTRYPDYEELYVNDYADLLDPAAEDRLRDKLIALYGHNGVEMTVLTIDTMGTYGHGGAIEPFATGLFNNWGIGDAERNDGVLVLIVRFDRKMRIEIGAGYERAWDARMQRVIDAGFLPYFRRDEYQEGIEAGVDETIRELTGAYPGAWDMGTAQRGWSWLARAVDRIGEWVLSLLLVPLGGAALWVRRYLRNRTRPCAQCRTPMLRAGEEADDEHLDGGQRLEEYLKSVDYDVWHCPDCGHIDIHRYKSWFSGYGACPQCNYRTLSTTSTVLSAATKTREGRKRVEYDCAHCGHHDSEIRTIPKISDSNSGGSGRSSFGGGSSSGGGASGSW” the protein production was “failed”. In the case of “MTKSHSQDQESTLLRLEHAQAILQRDAALAHIEHMRRSRSWRLTRPLRMLMQLLRHGVINDESEYPTHLPSLVQPLPASIPLEPDIVEDSTSGSAAQHFDLLCFANIDWSARFQRPQQLMTQFAIQGYRVFYIILSPLPAAERPYTAHPVAPGVFEITLRGHARQDYYATCITEGNLRANAEALQALVSDYRIKTAVSVVHLPYWTRLALHLRKAYGWPVQYDCMDEWQDFPNIGQPLLAQEQVLVEQADLVTVTASVLYDKWASTSRRCQLVRNGVDFDFFARCCTPNTLLEELQGPIIGFYGALAEWVDFELVAAIARQRPEWNLVLIGDVFVRDLAGLDRLPNVHLLGRKPYSQMPQYLYHFDVCIIPFRLYNVTHAVDPVKFYEFISAGKPVVAVPLLEMQIYEPYLYFADGPSAFVTQIERALGETDLQRWDQRLALARENDWRQRFEDTRDALVELFPKVSVIIVTYNNVQLTRGCIDSLLRNCAYPNLQLIIVDNASQDSTRNYLRYLARSEPNVSIVLNEQNLGFAAANNQGLRLAQGHYLVLLNNDTVVPKGWLAPLLRHLDDPEVGLVGPTTNAVGNEARVSIDYQDLDDMEDFADRRASQYRGRCFDIPMLAMFCVAMRREVLDQVGWLDEAFGIGMFEDDDYSRRVQAAGLRTVCAEDSYIHHYGQASFKALIASGEYQRLWDKNQAYFESKWGPWQPHRQARRRANADATKMKLTD”, the protein production is reported as “failed”. For “MTKSQQKVSSIEKLSNQEGIISALAFDQRGALKRMMAEHQSETPTVEQIEQLKVLVSEELTQYASSILLDPEYGLPASDARNNDCGLLLAYEKTGYDVNAKGRLPDCLVEWSAKRLKEQGANAVKFLLYYDVDDTEEINIQKKAYIERIGSECVAEDIPFFLEVLTYDDNIPDNKSAEFAKVKPRKVNEAMKLFSEDCFNVDVLKVEVPVNMNFVEGFSEGEVVYTKEEAAQHFRDQDAATHLPYIYLSAGVSAELFQDTLKFAHDSGAQFNGVLCGRATWSGAVKVYIEEGEQAAREWLRTVGFKNIDDLNTVLKTTATSWKNK”, the protein production was “not failed”. In the case of “MTKTKFEKVLLIVNPKAGQGDLHTNLTKIVPPLAAAFPDLHILHTKEQGDATKYCQEFASKVDLIIVFGGDGTVFECTNGLAPLEIRPTLAIIPGGTCNDFSRTLGVPQNIAEAAKLITKEHVKPVDVAKANGQHFLNFWGIGLVSEVSNNIDAEEKAKLGKIGYYLSTIRTVKNAETFPVKITYDGQVYEDEAVLVMVGNGEYLGGIPSFIPNVKCDDGTLDIFVVKSTGIQAFKDYIGKKLFEDSNENDIFHVKAKSIHIETEEEKEVDTDGESSLHTPCQIELLQGHFTMIYNPAVV”, the protein production is reported as “not failed”. For “MTKTSSGLKIMFRKIKLEVVRMDLSTIFASLLGLFLSLLTTGVYRYYSKPKIHKTVGVVILNPDKVDAKKIPPNLPEGLRRVTNSLEQELVLKLKKDQQKKAMLLIKISIIGIIISTIGLILGQ”, the protein production was “failed”. In the case of “MTKVHPKFPSTCEESLCDSKAAVVLTVWKKSLLFNCDGFTVYNANGELVFRVDNYMNCPRDNIVLMDASGFPLLSIRRKKLSLGDCWMVYDGETERDPIFTARKNVSIISNRKSLAWVSAKKTVLYEIEGSYGQRSCKILDERRNKKKTAEIKRKETVIGGVAFGKDVYKLIVESEMEPRVAMALTIILDQMFRSS”, the protein production is reported as “failed”. With “MTKYGVVGTGYFGAELARFMSKVEGAKITAIYDPVNAAPIAKELNCVATATMEALCTHPDVDCVIIASPNYLRKAPVIAAAKAGKHVFCEKPIALNYQDCKDMVDACKEAGVTFMAGHVMNFFHGVRHAKALIKAGEIGEVTQVHTKRNGFEDVQDEISWKKIRAKSGGHLYHHIHELDCTLFIMDETPSLVSMAAGNVAHKGEKFGDEDDVVLITLEFESGRFATLQWGSSFHYPEHYVLIEGTTGAILIDMQNTAGYLIKAGKKTHFLVHESQAEDDDRRNGNISSEMDGAIAYGKPGKRTPMWLSSIMKLEMQYLHDVINGLEPGEEFAKLLTGEAATNAIATADAATLSSNEGRKVKLTEILG” the protein production was “failed”. In the case of “MTLAPPLPHSNSPCSPCCMDPLLRHGFCLDMSGEIYPVIRLPCSGAAKGVHVMIRFIVKLLLCALVLLPLPAFATSGADTGPDNRLLRMGVRAHGGFTRLSMAFERDIAPVLHQLSGNRVRLVFSNTVGGRWKKLRSYRDAHVEGVVVAPRGNDLMVTVTIKGDPRGVRVSTSPGAGVVSLDVGASLAPRRSPPLAQGREGIKVGVEQLITTFDPPFKSEIPFTPTDRRVLEAMVPPAEAALIMDGEAALYEGNGSEAAEIFAGIGTNSPGRPLALYRLGEANYLLQKYGDALRFFREAERQWPVFLTRSPSTAFCYADSVARSGDLAGGRRLLGSLIAGLADKKYAPALLVRMADILARQGKDQEALAIYRNVADNFTGSKGSWQARMKLADRRLLALEPAAYSSLVKDYLEIYERGTDFGLREQGLFKAALLLSLYGDADQAFARVAEYEKKFPRGMYVSIAKGMREELLVPVYRRITRAGDNEALVKLALENRDYLGRVLAEDDFIKNLSAAFADLGRIKEEVGLYANLAIREQNRVYAPELYRRILHDAEQLGDPTLMEKAAGEFVERFPAHPWVQRFREELAAVEYNRGDFQRVVGRLSGMLASGTRPEYAESLYYLGKSLDASGNRRDAERAMLLFLAELRRREMSSPLAADASYVAATARLSRGDRKGAKEILRAAGEASPEERDPFLYKLGEIARSEGRYEEAAHYLRTVVKEGKDPDWRDMASRLLADMELTGMVRKSK”, the protein production is reported as “failed”. In the case of “MTLAPRHLRIEQRGRVLQVLLDNPPANFLTTAVMQELADLLEDLEQRQDIGAVILSGAADGVFLTHFDVDEIERAVAPITFSMPAWLTRLLLESESLLRHLPGARKLLRRTLLAGVADMNLFHEVTAHMRRMDKVFIAAINGLALGGGCELALACDLRLMAEDDQVERFLGQPEVLIGLIPGGGGTQMLARSLGVARALELCLEGQLLEPRQALALGLVNGLAPAEELLEAADALAQRLSRRSPQAVRLIKRSIYQAASRDWTEGMASEKAGFLSAASQGNTRRAMREYIERVRTITREERPFRRADFDDLTEGNAID”, the protein production is reported as “failed”. For “MTLDNRAFLKQSSKKLLFRFAVPAIFSLLVNELYNMVDTVFAGRYIGENAIGAMTIAFPIQKILIAMGLLIATGASTYAARVIGEKNYKELKKIVINSCALTIVSIISISFIIFQFKSSILYSLGASDNTYPMAVQYISIILFGSIFMCLASVMSYIMVSLGKTKTLLYTNIVGVLLNIILNYVLVIQLHMGIRGSGIATVLSQLAAFVVALVQFAYMNKKQNFKFFENISTNIISGDIIREIVLVGFSTFIIEIADAVVSAVLNNVLYAGGGDSAIIMLGVITKVYMFMFITVIGISSGMQPIVGYNFGAGNYKKAKDILKFSLKTVIIISAFVWVGFIIWAQPLIGFFLKDAQLVSKTVSAFRIVISMLPLLGIYYVAIYYYQAIGEARISFILSIYRELIMFIPMAVILFKIVGINGVFIAYPLTDIIVILTSVYFIRRAFKEQFAEESIPKRVGARA”, the protein production was “failed”.
